Literature values as cited in PMC5393932.

Molecular target: P-selectin (Homo sapiens) (UniProt P16109)
UniProt P16109, sequence (P16109 42-771): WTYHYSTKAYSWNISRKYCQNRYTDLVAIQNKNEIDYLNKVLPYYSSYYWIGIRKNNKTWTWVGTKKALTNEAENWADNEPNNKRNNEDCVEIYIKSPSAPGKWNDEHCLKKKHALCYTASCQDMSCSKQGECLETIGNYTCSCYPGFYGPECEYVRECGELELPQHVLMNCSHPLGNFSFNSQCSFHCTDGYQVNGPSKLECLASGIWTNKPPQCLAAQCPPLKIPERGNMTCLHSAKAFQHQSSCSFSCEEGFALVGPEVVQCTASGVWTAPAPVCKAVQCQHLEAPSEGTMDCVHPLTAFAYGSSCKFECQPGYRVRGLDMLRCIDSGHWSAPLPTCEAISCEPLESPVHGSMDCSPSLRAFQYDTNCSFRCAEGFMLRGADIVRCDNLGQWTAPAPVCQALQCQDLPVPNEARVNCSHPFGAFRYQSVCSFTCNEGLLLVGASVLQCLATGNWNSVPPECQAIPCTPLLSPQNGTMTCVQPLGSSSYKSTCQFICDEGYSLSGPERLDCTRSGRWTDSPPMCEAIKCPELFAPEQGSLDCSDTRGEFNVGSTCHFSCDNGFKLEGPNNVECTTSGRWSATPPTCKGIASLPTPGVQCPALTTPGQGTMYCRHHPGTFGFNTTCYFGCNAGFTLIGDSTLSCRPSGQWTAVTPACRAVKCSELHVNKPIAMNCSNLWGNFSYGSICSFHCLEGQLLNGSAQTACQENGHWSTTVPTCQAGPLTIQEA

PSGL-1 (from UniProt Q14242)
Kd: 70 nM
